Measured values reported in the supplement of paper PMC5998384.

Key:
HeLa Kyoto [1] = assay: solubility in G1/S (NP-40 vs SDS abundance) (log2 ratio); higher = more soluble; settings: cell cycle stage: G1/S
HeLa Kyoto [2] = assay: melting temperature (median over replicates), in situ; higher = more thermally stable
HeLa Kyoto [3] = assay: solubility change mitosis vs G1/S (difference of NP-40 vs SDS log2 ratios) (log2 ratio difference); higher = more soluble in mitosis
HeLa Kyoto [4] = assay: thermal stability score vs G1/S (z-score of summed log2 fold changes over temperatures); higher = more thermally stable than in G1/S
[5] = cell cycle stage: early G1 (4.5 h after nocodazole release)
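For melting temperature (median over replicates), in situ in this document: HeLa Kyoto cells synchronized by double thymidine or nocodazole block, proteins quantified by TMT10plex mass spectrometry, three independent biological replicates.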
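For solubility change mitosis vs G1/S (difference of NP-40 vs SDS log2 ratios) in this document: synchronized HeLa Kyoto cells (double thymidine block for G1/S, nocodazole release for mitosis), protein amounts in NP-40 versus SDS lysates quantified by mass spectrometry, three biological replicates.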
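For solubility in G1/S (NP-40 vs SDS abundance) in this document: HeLa Kyoto cells arrested at G1/S by double thymidine block, proteins quantified by TMT10plex mass spectrometry in mild NP-40 versus SDS extracts, three biological replicates.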
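For thermal stability score vs G1/S (z-score of summed log2 fold changes over temperatures) in this document: synchronized HeLa Kyoto cells, proteins quantified by TMT10plex mass spectrometry, three biological replicates, mitosis taken 0.5 h after nocodazole release, G1/S directly after double thymidine block.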

Question: What does the source list for “MEVTGDAGVPESGEIRTLKPCLLRRNYSREQHGVAASCLEDLRSKACDILAIDKSLTPVTLVLAEDGTIVDDDDYFLCLPSNTKFVALASNEKWAYNNSDGGTAWISQESFDVDETDSGAGLKWKNVARQLKEDLSSIILLSEEDLQMLVDAPCSDLAQELRQSCATVQRLQHTLQQVLDQREEVRQSKQLLQLYLQALEKEGSLLSKQEESKAAFGEEVDAVDTGISRETSSDVALASHILTALREKQAPELSLSSQDLELVTKEDPKALAVALNWDIKKTETVQEACERELALRLQQTQSLHSLRSISASKASPPGDLQNPKRARQDPT [DFFA]”?
Answer: solubility in G1/S (log2) (HeLa Kyoto [1]): 0.392; melting temperature (HeLa Kyoto [2]; cell cycle stage: G1/S): 54.2 °C; melting temperature (HeLa Kyoto [2]; cell cycle stage: mitosis): 54.5 °C; solubility change mitosis (log2) (HeLa Kyoto [3]): 0.0192; thermal stability score (HeLa Kyoto [4]; [5]): -1.44; thermal stability score (HeLa Kyoto [4]; cell cycle stage: mitosis): -0.858

Question: How did the “solubility in G1/S (log2)” value (HeLa Kyoto [1]) turn out when “MEWGSESAAVRRHRVGVERREGAAAAPPPEREARAQEPLVDGCSGGGRTRKRSPGGSGGASRGAGTGLSEVRAALGLALYLIALRTLVQLSLQQLVLRGAAGHRGEFDALQARDYLEHITSIGPRTTGSPENEILTVHYLLEQIKLIEVQSNSLHKISVDVQRPTGSFSIDFLGGFTSYYDNITNVVVKLEPRDGAQHAVLANCHFDSVANSPGASDDAVSCSVMLEVLRVLSTSSEALHHAVIFLFNGAEENVLQASHGFITQHPWASLIRAFINLEAAGVGGKELVFQTGPENPWLVQAYVSAAKHPFASVVAQEVFQSGIIPSDTDFRIYRDFGNIPGIDLAFIENGYIYHTKYDTADRILTDSIQRAGDNILAVLKHLATSDMLAAASKYRHGNMVFFDVLGLFVIAYPSRIGSIINYMVVMGVVLYLGKKFLQPKHKTGNYKKDFLCGLGITLISWFTSLVTVLIIAVFISLIGQSLSWYNHFYVSVCLYGTATVAKIILIHTLAKRFYYMNASAQYLGEVFFDISLFVHCCFLVTLTYQGLCSAFISAVWVAFPLLTKLCVHKDFKQHGAQGKFIAFYLLGMFIPYLYALYLIWAVFEMFTPILGRSGSEIPPDVVLASILAGCTMILSSYFINFIYLAKSTKKTMLTLTLVCAITFLLVCSGTFFPYSSNPANPKPKRVFLQHMTRTFHDLEGNAVKRDSGIWINGFDYTGISHITPHIPEINDSIRAHCEENAPLCGFPWYLPVHFLIRKNWYLPAPEVSPRNPPHFRLISKEQTPWDSIKLTFEATGPSHMSFYVRAHKGSTLSQWSLGNGTPVTSKGGDYFVFYSHGLQASAWQFWIEVQVSEEHPEGMVTVAIAAHYLSGEDKRSPQLDALKEKFPDWTFPSAWVCTYDLFVF [ERMP1]” was run?
Answer: -0.0493

Question: What about the melting temperature (HeLa Kyoto [2]; cell cycle stage: G1/S) of the same sequence?
Answer: 58.8 °C

Question: And the melting temperature (HeLa Kyoto [2]; cell cycle stage: mitosis)?
Answer: 56.7 °C

Question: What about the “solubility change mitosis (log2)” value (HeLa Kyoto [3]) of the same sequence?
Answer: -0.18

Question: What about the thermal stability score (HeLa Kyoto [4]; [5]) of the same sequence?
Answer: -3

Question: And the thermal stability score (HeLa Kyoto [4]; cell cycle stage: mitosis)?
Answer: -4.39

Question: Which results are given for “MEWWASSPLRLWLLLFLLPSAQGRQKESGSKWKVFIDQINRSLENYEPCSSQNCSCYHGVIEEDLTPFRGGISRKMMAEVVRRKLGTHYQITKNRLYRENDCMFPSRCSGVEHFILEVIGRLPDMEMVINVRDYPQVPKWMEPAIPVFSFSKTSEYHDIMYPAWTFWEGGPAVWPIYPTGLGRWDLFREDLVRSAAQWPWKKKNSTAYFRGSRTSPERDPLILLSRKNPKLVDAEYTKNQAWKSMKDTLGKPAAKDVHLVDHCKYKYLFNFRGVAASFRFKHLFLCGSLVFHVGDEWLEFFYPQLKPWVHYIPVKTDLSNVQELLQFVKANDDVAQEIAERGSQFIRNHLQMDDITCYWENLLSEYSKFLSYNVTRRKGYDQIIPKMLKTEL [POGLUT1]”?
Answer: solubility in G1/S (log2) (HeLa Kyoto [1]): 0.28; melting temperature (HeLa Kyoto [2]; cell cycle stage: G1/S): 52.9 °C; melting temperature (HeLa Kyoto [2]; cell cycle stage: mitosis): 54 °C; solubility change mitosis (log2) (HeLa Kyoto [3]): -0.0965; thermal stability score (HeLa Kyoto [4]; [5]): 2.61; thermal stability score (HeLa Kyoto [4]; cell cycle stage: mitosis): 3.25

Question: Which results are given for “MEYMAESTDRSPGHILCCECGVPISPNPANICVACLRSKVDISQGIPKQVSISFCKQCQRYFQPPGTWIQCALESRELLALCLKKIKAPLSKVRLVDAGFVWTEPHSKRLKVKLTIQKEVMNGAILQQVFVVDYVVQSQMCGDCHRVEAKDFWKAVIQVRQKTLHKKTFYYLEQLILKYGMHQNTLRIKEIHDGLDFYYSSKQHAQKMVEFLQCTVPCRYKASQRLISQDIHSNTYNYKSTFSVEIVPICKDNVVCLSPKLAQSLGNMNQICVCIRVTSAIHLIDPNTLQVADIDGSTFWSHPFNSLCHPKQLEEFIVMECSIVQDIKRAAGAGMISKKHTLGEVWVQKTSEMNTDKQYFCRTHLGHLLNPGDLVLGFDLANCNLNDEHVNKMNSDRVPDVVLIKKSYDRTKRQRRRNWKLKELARERENMDTDDERQYQDFLEDLEEDEAIRKNVNIYRDSAIPVESDTDDEGAPRISLAEMLEDLHISQDATGEEGASMLT [NMD3]”?
Answer: solubility in G1/S (log2) (HeLa Kyoto [1]): -0.119; melting temperature (HeLa Kyoto [2]; cell cycle stage: G1/S): 52.2 °C; melting temperature (HeLa Kyoto [2]; cell cycle stage: mitosis): 52.2 °C; solubility change mitosis (log2) (HeLa Kyoto [3]): -0.0927; thermal stability score (HeLa Kyoto [4]; [5]): -1.14; thermal stability score (HeLa Kyoto [4]; cell cycle stage: mitosis): -1.18

Question: How did the “solubility in G1/S (log2)” value (HeLa Kyoto [1]) turn out when “MFDTTPHSGRSTPSSSPSLRKRLQLLPPSRPPPEPEPGTMVEKGSDSSSEKGGVPGTPSTQSLGSRNFIRNSKKMQSWYSMLSPTYKQRNEDFRKLFSKLPEAERLIVDYSCALQREILLQGRLYLSENWICFYSNIFRWETTISIQLKEVTCLKKEKTAKLIPNAIQICTESEKHFFTSFGARDRCFLLIFRLWQNALLEKTLSPRELWHLVHQCYGSELGLTSEDEDYVSPLQLNGLGTPKEVGDVIALSDITSSGAADRSQEPSPVGSRRGHVTPNLSRASSDADHGAEEDKEEQVDSQPDASSSQTVTPVAEPPSTEPTQPDGPTTLGPLDLLPSEELLTDTSNSSSSTGEEADLAALLPDLSGRLLINSVFHVGAERLQQMLFSDSPFLQGFLQQCKFTDVTLSPWSGDSKCHQRRVLTYTIPISNPLGPKSASVVETQTLFRRGPQAGGCVVDSEVLTQGIPYQDYFYTAHRYCILGLARNKARLRVSSEIRYRKQPWSLVKSLIEKNSWSGIEDYFHHLERELAKAEKLSLEEGGKDARGLLSGLRRRKRPLSWRAHGDGPQHPDPDPCARAGIHTSGSLSSRFSEPSVDQGPGAGIPSALVLISIVICVSLIILIALNVLLFYRLWSLERTAHTFESWHSLALAKGKFPQTATEWAEILALQKQFHSVEVHKWRQILRASVELLDEMKFSLEKLHQGITVSDPPFDTQPRPDDSFS [GRAMD1A]” was run?
Answer: -0.0369

Question: And the melting temperature (HeLa Kyoto [2]; cell cycle stage: G1/S)?
Answer: 50.4 °C

Question: What about the melting temperature (HeLa Kyoto [2]; cell cycle stage: mitosis) of the same sequence?
Answer: 51.8 °C

Question: And the “solubility change mitosis (log2)” value (HeLa Kyoto [3])?
Answer: -0.0358

Question: What about the thermal stability score (HeLa Kyoto [4]; [5]) of the same sequence?
Answer: 0.21

Question: What about the thermal stability score (HeLa Kyoto [4]; cell cycle stage: mitosis) of the same sequence?
Answer: 0.368

Question: Which results are given for “MFEIKKICCIGAGYVGGPTCSVIAHMCPEIRVTVVDVNESRINAWNSPTLPIYEPGLKEVVESCRGKNLFFSTNIDDAIKEADLVFISVNTPTKTYGMGKGRAADLKYIEACARRIVQNSNGYKIVTEKSTVPVRAAESIRRIFDANTKPNLNLQVLSNPEFLAEGTAIKDLKNPDRVLIGGDETPEGQRAVQALCAVYEHWVPREKILTTNTWSSELSKLAANAFLAQRISSINSISALCEATGADVEEVATAIGMDQRIGNKFLKASVGFGGSCFQKDVLNLVYLCEALNLPEVARYWQQVIDMNDYQRRRFASRIIDSLFNTVTDKKIAILGFAFKKDTGDTRESSSIYISKYLMDEGAHLHIYDPKVPREQIVVDLSHPGVSEDDQVSRLVTISKDPYEACDGAHAVVICTEWDMFKELDYERIHKKMLKPAFIFDGRRVLDGLHNELQTIGFQIETIGKKVSSKRIPYAPSGEIPKFSLQDPPNKKPKV [UGDH]”?
Answer: solubility in G1/S (log2) (HeLa Kyoto [1]): 0.126; melting temperature (HeLa Kyoto [2]; cell cycle stage: G1/S): 54 °C; melting temperature (HeLa Kyoto [2]; cell cycle stage: mitosis): 54.2 °C; solubility change mitosis (log2) (HeLa Kyoto [3]): -0.0998; thermal stability score (HeLa Kyoto [4]; [5]): 0.636; thermal stability score (HeLa Kyoto [4]; cell cycle stage: mitosis): 0.376
